Columns and labels:
[1] = test system: MDA-MB231 breast cancer cells; assay: short-term cell number WST assay / XTT proliferation assay of small peptides; type: cell-based, human; details: 300 ng/ml
Source text: FIG. 6 presents diagrams showing the tumor suppressive impact of small peptides derived from ITIH5 on aggressive MDA-MB231 breast cancer cells. Growth inhibition mediated by chemically synthesized ITIH5-derived peptides using a short-term cell number WST assay.
These small protein fragments can be further optimized (stabilization, modification) to obtain suitable candidates for novel anti-tumor drugs. Use of biological drugs in targeted cancer therapy is a strongly growing area in cancer care.

[2] = test system: MDA-MB231 breast cancer cells; assay: short-term cell number assay (CASY cell counter); type: cell-based, human; details: for inhibition of tumor cell growth: dose dependent, maximal effect
Procedure: (§1) Various functional readout systems were available to determine the tumor suppressive impact of 1-681_ITIH5 treatment in vitro: A) Cell number assay: Numbers of living cells were quantified after four days of culturing using the CASY cell counter and analyzer (Roche Diagnostics, Mannheim, Germany). B) XTT proliferation assay: the cell proliferation KIT (XTT) was used according to the manufacturer's recommendations (Roche). C) Colony formation assay: 1×10^3 cells were seeded into six-well plates. After 14 days of culturing grown colonies were fixed with 3.5% formaldehyde/80% methanol and stained with 0.1% crystal violet. D) Wound healing assay: a confluent monolayer was scratched with a pipette tip. Afterwards cell migration within the wounded area was analyzed by using a light microscope over three days.
as §1, with “Highly purified peptides were used for functional in vitro validation. Various” for “Various”, “ITIH5 protein subfragments” for “1-681_ITIH5 treatment”, “B)” for “B) XTT proliferation assay: the cell proliferation KIT (XTT) was used according to the manufacturer's recommendations (Roche). C)”, “violet. C) In order to ensure specificity of observed effects of the ITIH5 subfragments a LDH Cytotoxicity Detection Kit (Roche) was performed according to the manufacturer's recommendations.” for “violet.”

[3] = test system: MDA-MB231 breast cancer cells; assay: scratch wound healing assay (cell migration); type: cell-based, human; details: over 3 days
Procedure: as §1
(§2) Highly purified peptides were used for functional in vitro validation. Various functional readout systems were available to determine the tumor suppressive impact of ITIH5 protein subfragments in vitro: A) Cell number assay: Numbers of living cells were quantified after four days of culturing using the CASY cell counter and analyzer (Roche Diagnostics, Mannheim, Germany). B) Colony formation assay: 1×10^3 cells were seeded into six-well plates. […] Afterwards cell migration within the wounded area was analyzed by using a light microscope over three days.

[4] = test system: MDA-MB231 breast cancer cells; assay: LDH Cytotoxicity Detection assay; type: cell-based, human; details: after 72 h vs controls
Procedure: (§3) In order to ensure specificity of observed effects of 1-681_ITIH5, a LDH Cytotoxicity Detection assay (Roche) was performed according to the manufacturer's recommendations. Furthermore MDA-MB231 single cell clones were generated which stably express ITIH5 protein under a strong CMV promoter. These endogenous ITIH5-positive clones are optimal control cells, i.e. those ITIH5-positive cells should not show further sensitivity against 1-681_ITIH5 in growth inhibitory experiments.
as §2, with “plates. After 14 days of culturing grown colonies were fixed with 3.5% formaldehyde/80% methanol and stained with 0.1% crystal violet. C) In order to ensure specificity of observed effects of the ITIH5 subfragments a LDH Cytotoxicity Detection Kit (Roche) was performed according to the manufacturer's recommendations.” for “plates.”

[5] = test system: T47D breast cancer cell line; assay: colony formation assay; type: cell-based, human
Procedure: as §1

[6] = test system: BT20 breast cancer cell line; assay: colony formation assay; type: cell-based, human
Procedure: as §1

[7] = test system: MDA-MB231 endogenously ITIH5 positive cells; assay: colony formation assay in ITIH5-expressing single cell clones; type: cell-based, human; details: MDA-MB231 clones stably expressing ITIH5
Procedure: as §1, §3

[8] = test system: SK-MES1 lung cancer cells; assay: XTT proliferation assay; type: cell-based, human; details: dose-dependent
Procedure: as §1

[9] = stability in supernatant of treated cancer cells (western blot); type: in vitro ADME; details: 1 μg/ml added to supernatant of MDA-MB231 cells; western blotting
Procedure: FIG. 2 is a diagram showing the performance of the recombinant 1-681_ITIH5 in vitro. A) Persisting stability of 1-681_ITIH5 over 48 h in vitro. 1 μg/ml of 1-681_ITIH5 was added to the supernatant of MDA-MB231 breast cancer cells. To the given time points 1 ml of the supernatant was harvested and non-degraded 1-681_ITIH5 was isolated and analyzed by western blotting (as shown). B) LDH cytotoxicity assay.
Before applying 1-681_ITIH5 in vitro both the stability and the purity were tested by using a western blot analysis.

[10] = test system: MDA-MB231 breast cancer cells; assay: long-term colony formation assay; type: cell-based, human; details: p<0.001
Procedure: as §1

[11] = test system: A549 lung cancer cells; assay: short-term cell number assay (CASY cell counter); type: cell-based, human; details: dose dependent, maximal effect
Procedure: as §1, with “Highly purified peptides were used for functional in vitro validation. Various” for “Various”, “ITIH5 protein subfragments” for “1-681_ITIH5 treatment”, “B)” for “B) XTT proliferation assay: the cell proliferation KIT (XTT) was used according to the manufacturer's recommendations (Roche). C)”, “violet. C) In order to ensure specificity of observed effects of the ITIH5 subfragments a LDH Cytotoxicity Detection Kit (Roche) was performed according to the manufacturer's recommendations.” for “violet.”

[12] = test system: A549 lung cancer cells; assay: LDH Cytotoxicity Detection assay; type: cell-based, human; details: after 72 h vs controls
Procedure: as §1, with “Highly purified peptides were used for functional in vitro validation. Various” for “Various”, “ITIH5 protein subfragments” for “1-681_ITIH5 treatment”, “B)” for “B) XTT proliferation assay: the cell proliferation KIT (XTT) was used according to the manufacturer's recommendations (Roche). C)”, “violet. C) In order to ensure specificity of observed effects of the ITIH5 subfragments a LDH Cytotoxicity Detection Kit (Roche) was performed according to the manufacturer's recommendations.” for “violet.”

## #26: chemically synthesized peptide derived from the ITIH5 VIT-domain (SVKSTIISRYAFTTVSCRML; isolated peptide)
[1]
  cancer cell growth, single peptides: significant impairment of cancer cell growth

## #32: chemically synthesized peptide derived from the ITIH5 VIT-domain (MLNRASEDQDIEFQMQIPAA; isolated peptide)
[1]
  cancer cell growth, single peptides: significant impairment of cancer cell growth

## #98: chemically synthesized peptide derived from the ITIH5 vWA domain (GDIQVLNGYFVHYFAPKDLP; isolated peptide)
[1]
  cancer cell growth, single peptides: significant impairment of cancer cell growth

## #102: chemically synthesized peptide derived from the ITIH5 vWA domain (YFAPKDLPPLPKNVVFVLDS; isolated peptide)
[1]
  cancer cell growth, single peptides: significant impairment of cancer cell growth

## #108: chemically synthesized peptide derived from the ITIH5 vWA domain (DSSASMVGTKLRQTKDALFT; isolated peptide)
[1]
  cancer cell growth, single peptides: significant impairment of cancer cell growth

## #111: chemically synthesized peptide derived from the ITIH5 vWA domain (KLRQTKDALFTILHDLRPQD; isolated peptide)
[1]
  cancer cell growth, single peptides: significant impairment of cancer cell growth

B1: 213_vWA: isolated recombinant polypeptide comprising only the vWA domain of ITIH5, 213 amino acids (protein)
chain: GYFVHYFAPKDLPPLPKNVVFVLDSSASMVGTKLRQTKDALFTILHDLRPQDRFSIIGFSNRIKVWKDHLISVTPDSIRDGKVYIHHMSPTGGTDINGALQRAIRLLNKYVAHSGIGDRSVSLIVFLTDGKPTVGETHTLKILNNTREAARGQVCIFTIGIGNDVDFRLLEKLSLENCGLTRRVHEEEDAGSQLIGFYDEIRTPLLSDIRIDY
modifications: “vWA” domain of the inter-alpha-trypsin inhibitor heavy chain
[2]
  inhibition of tumor cell growth: up to 30%

B2: 1-681_ITIH5: recombinant isolated polypeptide, amino acids 1-681 of the full-length ITIH5 protein (942 amino acids) (protein)
chain: MLLLLGLCLGLSLCVGSQEEAQSWGHSSEQDGLRVPRQVRLLQRLKTKPLMTEFSVKSTIISRYAFTTVSCRMLNRASEDQDIEFQMQIPAAAFITNFTMLIGDKVYQGEITEREKKSGDRVKEKRNKTTEENGEKGTEIFRASAVIPSKDKAAFFLSYEELLQRRLGKYEHSISVRPQQLSGRLSVDVNILESAGIASLEVLPLHNSRQRGSGRGEDDSGPPPSTVINQNETFANIIFKPTVVQQARIAQNGILGDFIIRYDVNREQSIGDIQVLNGYFVHYFAPKDLPPLPKNVVFVLDSSASMVGTKLRQTKDALFTILHDLRPQDRFSIIGFSNRIKVWKDHLISVTPDSIRDGKVYIHHMSPTGGTDINGALQRAIRLLNKYVAHSGIGDRSVSLIVFLTDGKPTVGETHTLKILNNTREAARGQVCIFTIGIGNDVDFRLLEKLSLENCGLTRRVHEEEDAGSQLIGFYDEIRTPLLSDIRIDYPPSSVVQATKTLFPNYFNGSEIIIAGKLVDRKLDHLHVEVTASNSKKFIILKTDVPVRPQKAGKDVTGSPRPGGDGEGDPNHIERLWSYLTTKELLSSWLQSDDEPEKERLRQRAQALAVSYRFLTPFTSMKLRGPVPRMDGLEEAHGMSAAMGPEPVVQSVRGAGTQPGPLLKKPYQPRIKISKTSVDGD
modifications: polypeptide 1-681_ ITIH5
[3]
  tumor cell migration / cell motility: impairs furthermore tumor cell migration
[4]
  unspecific cytotoxicity (LDH): no unspecific cytotoxicity
[5]
  colony growth: significantly reduced colony growth
[6]
  colony growth: significantly reduced colony growth
[7]
  growth inhibition in ITIH5-positive cells: not able to mediate growth inhibition
[2]; 100 ng/ml medium, repeated experiments
  Growth inhibition: up to 20%
[2]; 1 μg/ml medium, highly significant
  Growth inhibition: up to 50%
[8]
  cell growth inhibition (XTT): strongly mediates cell growth inhibition
[9]
  stability in the supernatant of treated cancer cells: ≥ 48 h
[10]
  colony growth after 14 days in culture (densitometrical evaluation): significantly impairs colony growth

B3: 1-162_VIT: isolated recombinant polypeptide comprising only the VIT domain of ITIH5, amino acid 1 to 162 (protein)
chain: MLLLLGLCLGLSLCVGSQEEAQSWGHSSEQDGLRVPRQVRLLQRLKTKPLMTEFSVKSTIISRYAFTTVSCRMLNRASEDQDIEFQMQIPAAAFITNFTMLIGDKVYQGEITEREKKSGDRVKEKRNKTTEENGEKGTEIFRASAVIPSKDKAAFFLSYEE
modifications: VIT- domain of the inter-alpha-trypsin inhibitor heavy chain
[3]
  tumor cell migration / cell motility: clearly suppresses cell motility
[11]
  inhibition of tumor cell growth: up to 40%
[12]
  unspecific cytotoxicity (LDH): no unspecific cytotoxicity
[4]
  unspecific cytotoxicity (LDH): no unspecific cytotoxicity
[2]
  inhibition of tumor cell growth: up to 40%

Reference: patent publication US10457718B2, “Compounds for the treatment of cancer” (Rheinisch-Westfaelische Technische Hochschule Aachen, priority 2015, dated 2019)
